According to the nanobody polyreactivity screen of Harvey et al. (2022):

Assay: yeast display, Sf9 membrane polyspecificity reagent, FACS + sequencing; frameworks hold sequencing errors
Method in brief: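 Sorting gates, low and high (top ~1%), were placed on anti-HA fluorescence to track expression and on streptavidin fluorescence to track reagent binding. A clone's polyreactivity label is taken from the gate it came out of. The reagent was 10% biotinylated, detergent-solubilized Sf9 membrane, applied for 1 hour at 4 °C to galactose-induced yeast display cells.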

Sequence | polyreactivity (PSR sort gate)
QVQLVESGGGLVQAGGSLRLSCAASGFIFVFYDMGWYRQAPGKERELVAGITRNDGSTYYADSVKGRFKISRDNAKNTVYLLMNSLKPEDTAVYYCAADRVRRNDKLAYDYWGQGTQVTVSS | low polyreactivity
QVQLVESGGGLFQAGGSLRLSCAASGSIFFYNNMGWYRQAPGKERELVDAISASGGRTYYADSVKGRFTISRDNAKNSVYLQMYSLKPEDTAVYYCAVRVPYRGYTRYDYWGQGTQVTVSS | high polyreactivity
QVQLVESGGGLVQAGGSLRLSCAASGSIFGYNAMGWYRQAPGKERELVAAISLTTGSTYYADSVKGRFTISRDNAKNTVYLQMNSLKPEDTAVYYCAAVDADYYYWGQGTQVTVSS | high polyreactivity
QVQLVESGGGLVQAGGSLRLSCAASGRTFSYYAMGCYRQAPGKERELVASISSGGSTKYADSVKGRFTISRDNAKNTVYLQMNSLKPEDTAVYYCAVTYWYGRVLYGYWGQGTQVTVSS | high polyreactivity
QVQLVESGGGLVQAGGSLRLSCAASGSIFGSNAMGWYRQAPGKEREFVAAIDWGGTITYYADSVKGRFTISRDNAKNTVYLQMNSLKPEDTAVYYCAADPTYPYGYWGQGTQVTVSS | low polyreactivity
QFQLVESGGGLVQAGGSLRLSCAASGSTFIRYAMGWYRQAPGKERELVAAISRSGGNTYYADSVKGRFTISRDKAKNTVYLQMNSLKPEDTAVYYCNKDRQQALNYWGQGTQVNVSS | high polyreactivity
QVQLVESGGGLVQAGGRLRLSCAASGSIFYYNVMGWYRQAHGKQRELVAAITWSGGTTYYADSVKGRFTISRDNAKNTVYLQMNSLKPEDTAVYYCIAASPYSWGYRRGYLGQGTQVTVSS | high polyreactivity
QVQLVESGGGLVQAGASLRLSCAAYGNINAYYAMGWYRQAPGKERELVAAITDSGGNTFYADSVKGRFTISRDNAKNTVYLQMNSLTPADSAVYYCADDPDGWGFVYPRYDYWGQCTQVTVSS | low polyreactivity
QVQLVESGGGLVQAGGSLRLSCAASGRTFESNAMGWYRQAPGKERELVAGITSGGITNYADSVKGRFTISRDNAKNTVYLQMNSLKPEDTAVYYCEFYYWGQGTQVTVSS | low polyreactivity
QVQLVESGGGLVQAGGRLRLRCAASGIIFTAYVMGWYRQAPGKERELVADITSGDGSTYYADSVKGRFTISRDNAKNTVYLQMNSLKPEDTAVYYCAADYGQLVFDSYRREYDYWGQGTQVTVSS | low polyreactivity
QVQLEESGGGLVQAGGSLRLSCSASGSIFRGYAMGWYRQAPGKERELVAAITSGGRTNYADSVKGRFTISRDNAKITVYLQMNSLKPEVTAVYYWIAGFRFYAYSRIAGEDYWGQGSQVTVSS | low polyreactivity
QVQLVESGGGLVQAGGSLRLSFAASGRIFYQYAMGWYRQAPGKERELVAAINSYGGRTYYADSVKGRFTISRDNAKYTVYLQMNSLKPEDTAVYYCAKLRVPYYAEYGYWGQGTQVTVSS | high polyreactivity
QVQLVESGGGLVQAGGSLRLSCAASGSIFKVYAMGWYRQAPGKEREIVAAITSSDSNTNYADSVKGRFTISRDNEKNTVYLQMNSLKPEDTAVYYCNARIYTRRYVPHYGFNYWGQGTQVTVSS | low polyreactivity
QVQLVESGGGLVQAGGSLRLSCAASGRTFIINTMGWYRQAHGKERELVAAISKNGATTNYADSVKGRFTISRDNAKNTVYFQMNSLKPEDTAVYYCNARYSGYLRLDYWGQGTQVTVSS | low polyreactivity
QVQIVESGGGLVQAGGSLRLSCAPSGRIYGPYAIGLYRQEPGKERELDAAIRSGGSTNYADSVKGRFTISRDNAKNTVYLQMNSLNPEDTAVYYCNAVRHTYGYYSWGQGTQVTVSS | high polyreactivity
QVQLVESGGGLVQAGGSLRLSCAASGRTISFNTMAWYRQAPGKERDLVAGIERGGSTNYADSVKVRFTISRDNAKNTVYFQMNSLKPEDTAVYYCAARNLRYRYRNYDYWGQGTQVTVSS | high polyreactivity
QFQLVESGGGLVKAGGSLRLSCAASGLTNIYNARGWYRQAPGKERELVAAISGNGGDTYSADSVKGRFTISRDNAKNTVYLQMNSLKPEDTAVYYCAADYAYTPITWDEYWGQGTQVTVSS | low polyreactivity
QVQLVESGGGLVQAGGSLRLSCAASGFTFGSNAMGWYRQAPGKERELVAAITWDGGSTYYADSVKGRFTISRDNAKNTVYLQMNSLKPEDTAVYYCARYLYATYGKYNYWGQGTQVTVSS | high polyreactivity
QVQLVESGGGLVQAGGSLRLSCAASGFTFRYYAMGWYRQAPGKERELVATIRTSGGSTYYADSVKGRFTISRDNAKNTVYLQMNSLKPEDTAVYYCAVRGRNWQHTRFNYWGQGTQVTVSS | high polyreactivity
QVQLVESGGGLVQAGGSLRLSCAASGYTFGKYAMGWYRQAPGKEREWVAGISSRGGSTYYADSVKGRFTISRDNAKNTVYLQMNSLKPEDTAVYYCAAVAYTGGPRKLGFNYWGQGTQVTVSS | high polyreactivity
QVQLVESRGGLVQAGGILRLSCAACGSTFPKYAMGWYRQAPGKERELVAAITGISGRTYYADSLKGRFTISRDNAKNTVYLQMNSLKPEDTAVYYCNARIFAGWSIYNYWGQGTQVTVSS | high polyreactivity
QVQLVESGGGLVQAGGSLRLSCAASGFIFSRYGMGWYRQAPGKERELVAAISRSGGSTYYADSVKGRFTISRDNAKNTVYLQMNSLKPEDTAVYYCATAYSWRNADWFAYSYDYWGQGTQVTVSS | low polyreactivity

Sequence | polyreactivity (PSR sort gate)
QVQLVESGGGLVQAGGSLRLSCAASGRIFSVNVMVWYRQAPGKERELVAAITWSVGSTYYADSVKARFTISRDNAKYTVSLQMYSLKPEDTAVYYSAARVPPVYGRVGGYHYWGQGTQVTVSS | low polyreactivity
QVQLVESGGGLVQAGGSLRLSCAASGFIFANNAMGWYRQAPGKERELVAAITSRGASTYYADSVKGRFTISRDNAKNTVYLQMNSLKPEDTAVYYCAKATYHYRRYYWGQGTQVTVSS | high polyreactivity
QVQLVESGGGLVQAGGSLRLSCAASGSIFDYNAMGWYTQAPGKERELVAAITSGGSTNYADSVKGRFTISRDNAKNTVYLQMNTLKPEDTAVYYCAADHDYYPTNLDYWGQGTQVTVSS | low polyreactivity
QVQLVESGGGLVQAGGSLRLSCAASGFILDTYGMGWYRQAPGKERELVAAISQSDVSTYYADSVKGRFTISRDNAKNTVYLQMNSLKPEDTAVYYCNAGAGKRGYDYWGQGTQVTVSS | low polyreactivity
QVQLVESGGGLVQAGGSLRISCAASGSIFRRYAMGWYSQAPGKERDLVATISSVTTTNYADSVKGRFTISRDNANNTVYLQMNSLKPEDTSVFYCAAVVYGQRRGPGQRKSYWGQGTQVTVSS | high polyreactivity
QVQLVESGGGLVQAGGSLRLSCAASGSIFRYYAMGWYRQAPGKERELVAAITSSAGSTYYADSVKGRFTISRDNAKNTVYLQMNSLKPEDTAVYYCNALVQGKEYYWGQGTQVTVSS | high polyreactivity
QVQLVESGGGLVQAGGSLRISCAASGRIFRGNALGWYRQAPGTERELVAAITRSGGSTYYADSVKGRFTISRDNAKNTVYLQMNSLKPEDTAVYYCAAGYPYYSYLYDYWGQGTQVSVSS | high polyreactivity
QVQLEESGGGLVQAGGSLRLSCAASGFTFSGYDMGWYRQAPGKERELVAGISSGGVSTTYADSVKGRFTISRDNAKNTVYLQMNSLKPEDTAVYYCNAEWTSFDWGQGTQVTVSS | low polyreactivity
QVQLVESGGGLVQAGGSLRLSCAASGRIFSYYTMGGYRQAPGTERELVAAISSGGSTNYADSVKGRFTISRDNAKNTVYLQMNSLKPEDTAVYYCAVRSGRRNYDRPAFGYWGQGTQVTVSS | high polyreactivity
QVHLVESGGRLVQAGGSLRLSCAASGFIFQWYAMGWYRQAPGKERELVAAINSSGSTNYADSVKGRFTISRDNAKNTVYLQMNSLKPEDTAVYYCAAHWRYGRKFDYWGQGTQVTVSS | high polyreactivity
QVQLVESWGGLVQAGGSLRLSCAASGSTFFSYAMGWYRQAPGKERELVAGIEWNGGDTNYADSVKGRFTISRDNAKNTVYLQMNSRKPVDTAVYYCATDYSYPGPFRRRERFDYWGQGTQVTVSS | low polyreactivity
QVQLVESGGGLVQAGGSLRLSCAASGGIFSPNAMGWYRQAPGKERELVAAISSNGGSTNYADSVKGRFTISRDNAKNTVYLQMNSLKPEDTAVFYCAGLQLRRSYRRPFYWGQGTQVTVSS | low polyreactivity
QVQLVESGGGLVQAGGSLRLSCAASGRPFNRNAMGWYRTAPGKERELVASITSRGGSTYYADSVKGRFTISRDNAKNTVYLQMNSLKTEDTAVYYCAGYTRNGDYDYWGQGTQVTFSS | high polyreactivity
QVQLVESGGGLVQAGGSLRLSCAASGITFYRYTMGWYRQAPGKERELVAAIRSAGSTYYADSVKGRFTISRDNAKNTVYLQMNSLKPEDTAVYYCAATYYRYNVPYYGGNGGDYWGQGTQVTVSS | high polyreactivity
QVQLVESGGGLVQAGGSLRLSCAASGFTFAPNAMGWYRQAHGKERELVAAISSASSTYYADSVKGRFTISRDNAKNTVYLQMNSLKPEDTAVYYCAAREGWGFYYWGQGTQGTVSS | high polyreactivity
QVQLVESGGGLVQAGGSLRLSCAASGLTLGRYARGWYRQAPGKERELVAVITGGGSTNYADSVKGRFTISRDNSKNTVYLQMNSLKPEDTAVYYCAAARSPYKYSYWGQGTQVTVSS | high polyreactivity
QVQLVESGGGLVQEGGSLRLSCADSGITFWAYAMGWYRQAPGKERELVASISSGGSTYYADSVKGRFTISRDNAKNTVYLQMNSLKPEDTAVYYCNTQDRSEYDWGQGTQVTVSS | high polyreactivity
QVQLVESGGGLVQAGGSLRLSCAASGRTFTRNAMGWYRQAPGKERELVAAITRGASTYYADSVKGRFTISRDNAKNTVYLQMNSLKPEDTAVYYCAVSQYRGIYRKYDYWGQGTQVTVSS | high polyreactivity
EEELVESAVRLVQAGVSLRLSCAASAIIYAYNAMGWYRQAPGKESELVAAISSGDDTNYADSVKGRFTISRDNAKNTVYLQLNSLKPEDTAVYYCAAEVWTAFTHGSYWTVVDYDYWGQGTQVTVST | low polyreactivity
QVQLVESGGGLVQAGGSLRLSCAASGRTFRPYAMGWYRQAPGKERELVAAISSGGSTYYADSVKGRFTISRDNAKNTVYLQMNSLKPEDTAVYYCNAVGLWARDYGYWGQGTQVTVSS | high polyreactivity
QVQLVESGGGLVQAGGSLRLSCAASGRTFVGYAMGWYRQAPGKERELVASITASGGRTYYADSVKGRFTISRDNAKNTVYLQMNSLKPEDTAVYYCAAYIHWSEDYWGQGTQVTVSS | low polyreactivity
